B1: Ankyrin-2, residues 3571 to 3650; numbered along this chain, Q01484 (parent)
chain: ERLAYIADHLGFSWTELARELDFTEEQIHQIRIENPNSLQDQSHALLKYWLERDGKHATDTNLVECLTKINRMDIVHLME

Variants of: B1
Assay: abundance fitness (aPCA) (normalised: wild type 0, dead -1); higher = more abundant; growth selection in yeast, the domain comes from the species named
Details: Homo sapiens

Abundance fitness of substitutions, site by site:
E52: Y -0.393; F -0.034
L51: V -0.087; C -0.236; G -0.154; H -0.034; N -0.123; F 0.037; Y 0.031; W -0.106; P -0.272; R -0.072; T 0.017; E -0.111; I -0.015; A -0.165; S -0.107; Q 0.104; D -0.058
S43: M -1.13; Y -0.508; W -0.638; A -0.281; P -0.32; L -0.216; R -0.701; V -0.25; G -0.093
A45: H -0.197; V 0.101; R -0.002; L -0.002; D 0.097; C -0.189; G -0.231
D54: N -0.033; V -0.024; M -0.013; S -0.095; C -0.134; A -0.022; I -0.354; P -0.144; K 0.097; L -0.035; G 0.003; H 0.025; W -0.041; Q -0.111; E -0.02; T 0.018; Y 0.008; F 0.01; R -0.073
N37: I -0.01; M 0.099; D -0.015; K -0.074; G -0.028; H -0.021; Q -0.069; S -0.031; F -0.003; L -0.067; W -0.091; Y -0.171; P -0.249; R -0.068; T -0.093
Q42: G -0.323; P -0.768; S 0.073; R -0.12; T -0.538; V -0.204; W -0.481; A -0.068; I -0.33; C 0.007; H -0.807
Y49: P -0.513; W -0.117; I -0.009; D -0.031; R -0.129; S -0.001; V 0.068; K -0.052; G 0.042; F 0.02; A 0.016; L 0.017; C 0.037; M 0.059; N -0.056
L47: R -0.541; Y -0.148; N -0.582; D -0.935; A -0.191; V -0.034; Q -0.626; K -0.412; C -0.163; G -0.409; F 0.046; P -1.28; M 0.123; E -0.673; S -0.462; H -0.592; W -0.238; T -0.026; I -0.061
K48: I -0.164; P -0.848; E -0.027; W -0.171; Q -0.097; M -0.2; D -0.062; R 0.01; Y -0.093; V -0.076; A -0.063; N 0.028; C 0.054; S -0.094; L 0.02; H -0.015; F -0.053; T 0.04
A58: H 0.156; N 0.054; R -0.067; L 0.041; T -0.098; F -0.05; I -0.294; Q 0.039; G -0.03; C -0.026; V -0.018; S -0.193; M -0.231; E -0.071; Y 0.026; P 0.027; W -0.167
L39: F -0.013; H -0.155; Q -0.102; C -0.017; A 0.031; E -0.027; W -0.045; D -0.031; P -0.016; G -0.108; K -0.087; Y 0.076; I 0.071; V -0.043; R -0.109; S -0.025; T -0.134; M -0.042
